Common to all, as to assay: SPR (Biacore);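 further: antibody variants captured on sensor chip, Fcγ receptor flowed over at 25 °C, bound receptor normalized to amount of captured antibody, expressed relative to reference antibody set as 100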
(In SPR one partner is held on a chip, and binding of the other changes the refractive index at the surface.)

The target of experiment [1] is T1, human FcγRIIb (human, UniProt P31994 43-217, limits assumed).
T1 construct: also called FcgRIIb
T1 sequence: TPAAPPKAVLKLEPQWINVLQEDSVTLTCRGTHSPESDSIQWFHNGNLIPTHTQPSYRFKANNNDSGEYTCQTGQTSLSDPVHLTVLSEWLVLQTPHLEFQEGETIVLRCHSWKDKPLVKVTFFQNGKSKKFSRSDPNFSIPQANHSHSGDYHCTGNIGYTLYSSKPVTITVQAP

Experiment [2] deals with T2, human FcγRIIIa(F) (human, UniProt P08637 17-208, limits assumed).
T2 construct: also called FcgRIIIaF; allotype F158
T2 sequence (P08637 other isoform, or with tags, fused parts or gaps limits assumed): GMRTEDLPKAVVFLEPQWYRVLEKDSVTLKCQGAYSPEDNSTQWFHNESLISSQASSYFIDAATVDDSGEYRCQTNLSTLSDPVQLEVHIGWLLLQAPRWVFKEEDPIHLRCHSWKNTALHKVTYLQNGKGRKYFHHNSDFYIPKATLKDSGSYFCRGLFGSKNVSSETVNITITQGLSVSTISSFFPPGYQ

Experiment [3] deals with T3, human FcγRIIa(H) (human, UniProt P12318 36-217).
T3 construct: also called FcgRIIaH; FcγRIIa type H
T3 sequence: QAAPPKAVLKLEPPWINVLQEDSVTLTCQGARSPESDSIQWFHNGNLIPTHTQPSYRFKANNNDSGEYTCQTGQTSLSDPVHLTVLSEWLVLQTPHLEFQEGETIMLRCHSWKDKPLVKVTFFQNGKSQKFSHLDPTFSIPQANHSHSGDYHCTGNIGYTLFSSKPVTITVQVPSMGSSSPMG

In experiment [4] the target is T4, human FcγRIa (human, UniProt P12314 16-292, limits assumed).
T4 construct: also called FcgRIa; FcγRI (CD64)
T4 sequence (P12314 16-292 limits assumed): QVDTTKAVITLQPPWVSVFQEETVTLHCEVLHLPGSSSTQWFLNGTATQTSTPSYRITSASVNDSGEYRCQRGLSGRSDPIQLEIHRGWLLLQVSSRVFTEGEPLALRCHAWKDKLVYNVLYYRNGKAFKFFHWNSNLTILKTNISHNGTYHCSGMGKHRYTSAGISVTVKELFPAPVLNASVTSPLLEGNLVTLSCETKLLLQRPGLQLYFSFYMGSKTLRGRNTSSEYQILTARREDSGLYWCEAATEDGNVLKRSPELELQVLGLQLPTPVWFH

In experiment [5] the target is T5, human FcγRIIa(R) (human, UniProt P12318 36-217).
T5 construct: also called FcgRIIaR; FcγRIIa type R
T5 chain: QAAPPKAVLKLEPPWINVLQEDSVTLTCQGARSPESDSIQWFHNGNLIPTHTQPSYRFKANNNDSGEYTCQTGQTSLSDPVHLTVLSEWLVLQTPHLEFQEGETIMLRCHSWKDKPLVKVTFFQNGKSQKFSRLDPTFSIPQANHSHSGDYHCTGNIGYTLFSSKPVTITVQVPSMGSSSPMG

B1: GpH7-B3 variant L235I/GpL16-k0 (antibody, human IgG1)
heavy: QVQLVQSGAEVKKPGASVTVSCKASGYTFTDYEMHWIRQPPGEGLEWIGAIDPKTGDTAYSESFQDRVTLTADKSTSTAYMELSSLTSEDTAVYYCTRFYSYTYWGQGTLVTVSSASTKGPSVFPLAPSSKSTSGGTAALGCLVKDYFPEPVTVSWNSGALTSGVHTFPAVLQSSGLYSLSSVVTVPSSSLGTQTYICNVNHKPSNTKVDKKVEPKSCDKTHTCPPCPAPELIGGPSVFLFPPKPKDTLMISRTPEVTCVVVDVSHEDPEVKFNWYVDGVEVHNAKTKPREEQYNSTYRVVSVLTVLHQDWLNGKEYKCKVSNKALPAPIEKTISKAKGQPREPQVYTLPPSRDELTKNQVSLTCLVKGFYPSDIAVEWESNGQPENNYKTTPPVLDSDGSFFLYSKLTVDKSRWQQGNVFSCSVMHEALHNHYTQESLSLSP
light: DIVMTQSPLSLPVTPGEPASISCQASESLVHSNRNTYLHWYLQKPGQSPQLLIYKVSNRFSGVPDRFSGSGSGTDFTLKISRVEAEDVGVYYCSQNTHVPPTFGQGTKVEIE
notes: copies: 2 + 2
For the molecule B1, the relative binding activity is 88 % of GpH7-B3/GpL16-k0 in experiment [1]; 85 % of GpH7-B3/GpL16-k0 in experiment [2]; 89 % of GpH7-B3/GpL16-k0 in experiment [3]; 93 % of GpH7-B3/GpL16-k0 in experiment [4]; 81 % of GpH7-B3/GpL16-k0 in experiment [5].

B2: GpH7-B3 variant L234W/GpL16-k0 (antibody, human IgG1)
heavy: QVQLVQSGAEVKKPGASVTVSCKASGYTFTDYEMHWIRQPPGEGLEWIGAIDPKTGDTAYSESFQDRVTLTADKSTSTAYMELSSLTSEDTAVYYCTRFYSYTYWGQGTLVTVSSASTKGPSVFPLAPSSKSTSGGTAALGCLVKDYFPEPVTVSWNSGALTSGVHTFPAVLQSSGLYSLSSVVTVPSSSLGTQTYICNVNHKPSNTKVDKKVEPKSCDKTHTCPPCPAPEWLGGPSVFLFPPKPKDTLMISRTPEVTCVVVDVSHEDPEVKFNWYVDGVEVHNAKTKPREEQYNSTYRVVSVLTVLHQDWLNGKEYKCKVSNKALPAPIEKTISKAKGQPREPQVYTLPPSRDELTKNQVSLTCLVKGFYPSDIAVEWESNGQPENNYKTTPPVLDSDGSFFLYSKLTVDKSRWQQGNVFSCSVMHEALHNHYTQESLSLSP
light: DIVMTQSPLSLPVTPGEPASISCQASESLVHSNRNTYLHWYLQKPGQSPQLLIYKVSNRFSGVPDRFSGSGSGTDFTLKISRVEAEDVGVYYCSQNTHVPPTFGQGTKVEIE
notes: copies: 2 + 2
In the case of B2, the relative binding activity is 90 % of GpH7-B3/GpL16-k0 in experiment [1]; 36 % of GpH7-B3/GpL16-k0 in experiment [2]; 63 % of GpH7-B3/GpL16-k0 in experiment [3]; 94 % of GpH7-B3/GpL16-k0 in experiment [4]; 64 % of GpH7-B3/GpL16-k0 in experiment [5].

B3: GpH7-B3 variant L234S/GpL16-k0 (antibody, human IgG1)
heavy: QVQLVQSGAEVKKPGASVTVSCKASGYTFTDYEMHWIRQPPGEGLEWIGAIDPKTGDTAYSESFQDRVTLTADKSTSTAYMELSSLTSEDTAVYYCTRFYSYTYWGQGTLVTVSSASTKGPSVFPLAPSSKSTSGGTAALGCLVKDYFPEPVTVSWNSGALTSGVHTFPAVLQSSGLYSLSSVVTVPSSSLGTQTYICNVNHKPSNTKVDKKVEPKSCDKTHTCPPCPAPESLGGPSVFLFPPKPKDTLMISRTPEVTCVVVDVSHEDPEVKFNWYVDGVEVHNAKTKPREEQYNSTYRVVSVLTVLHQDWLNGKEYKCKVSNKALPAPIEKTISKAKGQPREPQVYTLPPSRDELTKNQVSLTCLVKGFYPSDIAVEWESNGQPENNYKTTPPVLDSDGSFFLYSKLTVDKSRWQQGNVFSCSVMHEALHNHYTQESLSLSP
light: DIVMTQSPLSLPVTPGEPASISCQASESLVHSNRNTYLHWYLQKPGQSPQLLIYKVSNRFSGVPDRFSGSGSGTDFTLKISRVEAEDVGVYYCSQNTHVPPTFGQGTKVEIE
notes: copies: 2 + 2
As to B3, the relative binding activity was 19 % of GpH7-B3/GpL16-k0 in experiment [1]; 22 % of GpH7-B3/GpL16-k0 in experiment [2]; 21 % of GpH7-B3/GpL16-k0 in experiment [3]; 63 % of GpH7-B3/GpL16-k0 in experiment [4]; 20 % of GpH7-B3/GpL16-k0 in experiment [5].

B4: GpH7-B3 variant L235E/GpL16-k0 (antibody, human IgG1)
heavy: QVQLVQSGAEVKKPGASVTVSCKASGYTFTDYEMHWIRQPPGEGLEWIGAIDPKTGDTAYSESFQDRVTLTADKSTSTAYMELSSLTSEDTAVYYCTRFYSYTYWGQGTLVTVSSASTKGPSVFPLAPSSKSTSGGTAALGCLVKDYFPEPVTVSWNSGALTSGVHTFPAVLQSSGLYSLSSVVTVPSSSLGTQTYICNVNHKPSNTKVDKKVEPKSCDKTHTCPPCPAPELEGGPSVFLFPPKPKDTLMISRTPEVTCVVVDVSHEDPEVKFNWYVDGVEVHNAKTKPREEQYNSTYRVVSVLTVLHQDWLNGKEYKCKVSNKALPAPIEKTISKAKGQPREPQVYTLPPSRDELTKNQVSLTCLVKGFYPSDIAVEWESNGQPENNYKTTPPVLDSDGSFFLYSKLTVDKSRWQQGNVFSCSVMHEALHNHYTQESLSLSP
light: DIVMTQSPLSLPVTPGEPASISCQASESLVHSNRNTYLHWYLQKPGQSPQLLIYKVSNRFSGVPDRFSGSGSGTDFTLKISRVEAEDVGVYYCSQNTHVPPTFGQGTKVEIE
notes: copies: 2 + 2
In the case of B4, the relative binding activity in experiment [1] is 64 % of GpH7-B3/GpL16-k0; in experiment [2] it was 56 % of GpH7-B3/GpL16-k0; in experiment [3], 52 % of GpH7-B3/GpL16-k0; in experiment [4], 15 % of GpH7-B3/GpL16-k0; in experiment [5], 72 % of GpH7-B3/GpL16-k0.

B5: GpH7-B3 variant L234P/GpL16-k0 (antibody, human IgG1)
heavy: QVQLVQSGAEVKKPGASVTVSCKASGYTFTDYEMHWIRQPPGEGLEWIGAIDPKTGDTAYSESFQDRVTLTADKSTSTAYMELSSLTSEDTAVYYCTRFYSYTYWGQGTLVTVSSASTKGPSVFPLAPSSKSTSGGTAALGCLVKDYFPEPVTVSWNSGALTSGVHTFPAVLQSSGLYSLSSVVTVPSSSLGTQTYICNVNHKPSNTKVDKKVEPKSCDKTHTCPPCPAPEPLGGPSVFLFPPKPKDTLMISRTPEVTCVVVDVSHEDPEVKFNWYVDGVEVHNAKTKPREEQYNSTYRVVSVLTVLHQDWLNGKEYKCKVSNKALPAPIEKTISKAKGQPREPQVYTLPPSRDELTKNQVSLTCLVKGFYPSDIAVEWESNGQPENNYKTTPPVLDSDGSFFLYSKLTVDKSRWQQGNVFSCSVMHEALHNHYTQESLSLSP
light: DIVMTQSPLSLPVTPGEPASISCQASESLVHSNRNTYLHWYLQKPGQSPQLLIYKVSNRFSGVPDRFSGSGSGTDFTLKISRVEAEDVGVYYCSQNTHVPPTFGQGTKVEIE
notes: copies: 2 + 2
In the case of B5, the relative binding activity in experiment [1] was 33 % of GpH7-B3/GpL16-k0; in experiment [2], 45 % of GpH7-B3/GpL16-k0; in experiment [3], 45 % of GpH7-B3/GpL16-k0; in experiment [4], 83 % of GpH7-B3/GpL16-k0; in experiment [5], 41 % of GpH7-B3/GpL16-k0.

B6: GpH7-B3 variant L235N/GpL16-k0 (antibody, human IgG1)
heavy: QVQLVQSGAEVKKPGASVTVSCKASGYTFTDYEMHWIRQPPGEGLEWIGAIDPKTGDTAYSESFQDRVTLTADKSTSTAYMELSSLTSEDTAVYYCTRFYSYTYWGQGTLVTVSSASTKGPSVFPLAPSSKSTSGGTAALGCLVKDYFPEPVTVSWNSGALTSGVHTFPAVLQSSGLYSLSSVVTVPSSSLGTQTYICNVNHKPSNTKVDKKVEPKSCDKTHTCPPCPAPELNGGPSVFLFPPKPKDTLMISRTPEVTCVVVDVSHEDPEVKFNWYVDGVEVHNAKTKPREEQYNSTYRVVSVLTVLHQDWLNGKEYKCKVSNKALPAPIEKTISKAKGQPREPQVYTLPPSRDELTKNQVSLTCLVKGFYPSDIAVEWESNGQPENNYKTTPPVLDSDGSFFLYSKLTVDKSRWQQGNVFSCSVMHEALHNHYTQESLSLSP
light: DIVMTQSPLSLPVTPGEPASISCQASESLVHSNRNTYLHWYLQKPGQSPQLLIYKVSNRFSGVPDRFSGSGSGTDFTLKISRVEAEDVGVYYCSQNTHVPPTFGQGTKVEIE
notes: copies: 2 + 2
With B6, the relative binding activity was 27 % of GpH7-B3/GpL16-k0 in experiment [1]; 35 % of GpH7-B3/GpL16-k0 in experiment [2]; 37 % of GpH7-B3/GpL16-k0 in experiment [3]; 3 % of GpH7-B3/GpL16-k0 in experiment [4]; 35 % of GpH7-B3/GpL16-k0 in experiment [5].

B7: GpH7-B3 variant L235Q/GpL16-k0 (antibody, human IgG1)
heavy: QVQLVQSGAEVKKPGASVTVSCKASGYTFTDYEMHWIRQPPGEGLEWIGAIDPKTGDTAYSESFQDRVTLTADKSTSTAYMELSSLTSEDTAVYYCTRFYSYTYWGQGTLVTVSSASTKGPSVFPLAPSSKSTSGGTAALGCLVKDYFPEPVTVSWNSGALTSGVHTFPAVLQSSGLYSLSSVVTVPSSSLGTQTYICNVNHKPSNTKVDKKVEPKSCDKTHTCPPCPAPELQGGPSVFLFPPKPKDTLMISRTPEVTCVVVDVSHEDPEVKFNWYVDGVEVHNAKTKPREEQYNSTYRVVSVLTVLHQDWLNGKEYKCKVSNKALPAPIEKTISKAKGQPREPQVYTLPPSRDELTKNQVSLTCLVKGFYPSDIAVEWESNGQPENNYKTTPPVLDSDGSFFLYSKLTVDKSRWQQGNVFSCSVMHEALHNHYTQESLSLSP
light: DIVMTQSPLSLPVTPGEPASISCQASESLVHSNRNTYLHWYLQKPGQSPQLLIYKVSNRFSGVPDRFSGSGSGTDFTLKISRVEAEDVGVYYCSQNTHVPPTFGQGTKVEIE
notes: copies: 2 + 2
B7: the relative binding activity in experiment [1] is 20 % of GpH7-B3/GpL16-k0; in experiment [2], 35 % of GpH7-B3/GpL16-k0; in experiment [3], 34 % of GpH7-B3/GpL16-k0; in experiment [4], 29 % of GpH7-B3/GpL16-k0; in experiment [5] it was 28 % of GpH7-B3/GpL16-k0.

B8: GpH7-B3 variant L234Q/GpL16-k0 (antibody, human IgG1)
heavy: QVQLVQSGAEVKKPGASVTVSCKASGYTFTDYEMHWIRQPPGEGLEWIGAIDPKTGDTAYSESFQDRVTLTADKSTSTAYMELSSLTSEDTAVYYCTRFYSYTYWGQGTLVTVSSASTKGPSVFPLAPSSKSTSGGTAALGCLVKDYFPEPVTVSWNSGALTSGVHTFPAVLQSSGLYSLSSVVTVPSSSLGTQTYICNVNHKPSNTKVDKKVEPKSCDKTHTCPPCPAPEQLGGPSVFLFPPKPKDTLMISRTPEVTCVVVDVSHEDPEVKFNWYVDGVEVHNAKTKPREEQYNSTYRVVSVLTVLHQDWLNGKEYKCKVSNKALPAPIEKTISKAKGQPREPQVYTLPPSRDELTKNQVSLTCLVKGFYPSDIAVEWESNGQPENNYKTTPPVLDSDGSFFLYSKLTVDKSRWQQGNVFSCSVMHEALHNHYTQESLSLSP
light: DIVMTQSPLSLPVTPGEPASISCQASESLVHSNRNTYLHWYLQKPGQSPQLLIYKVSNRFSGVPDRFSGSGSGTDFTLKISRVEAEDVGVYYCSQNTHVPPTFGQGTKVEIE
notes: copies: 2 + 2
For the molecule B8, the relative binding activity in experiment [1] is 19 % of GpH7-B3/GpL16-k0; in experiment [2] it was 25 % of GpH7-B3/GpL16-k0; in experiment [3], 16 % of GpH7-B3/GpL16-k0; in experiment [4], 80 % of GpH7-B3/GpL16-k0; in experiment [5], 18 % of GpH7-B3/GpL16-k0.

B9: GpH7-B3 variant L234R/GpL16-k0 (antibody, human IgG1)
heavy: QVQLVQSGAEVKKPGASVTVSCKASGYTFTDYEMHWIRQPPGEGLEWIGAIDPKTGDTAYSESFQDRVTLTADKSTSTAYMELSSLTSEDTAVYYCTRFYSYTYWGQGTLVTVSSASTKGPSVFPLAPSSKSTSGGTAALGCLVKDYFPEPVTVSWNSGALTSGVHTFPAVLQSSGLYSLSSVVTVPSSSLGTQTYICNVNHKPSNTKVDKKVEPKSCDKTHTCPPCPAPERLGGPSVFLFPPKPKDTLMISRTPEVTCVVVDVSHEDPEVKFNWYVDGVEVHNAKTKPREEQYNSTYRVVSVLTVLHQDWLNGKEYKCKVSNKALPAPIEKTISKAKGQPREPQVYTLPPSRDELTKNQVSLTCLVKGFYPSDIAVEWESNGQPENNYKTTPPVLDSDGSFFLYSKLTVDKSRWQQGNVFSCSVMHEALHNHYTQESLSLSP
light: DIVMTQSPLSLPVTPGEPASISCQASESLVHSNRNTYLHWYLQKPGQSPQLLIYKVSNRFSGVPDRFSGSGSGTDFTLKISRVEAEDVGVYYCSQNTHVPPTFGQGTKVEIE
notes: copies: 2 + 2
For B9, the relative binding activity is 0 % of GpH7-B3/GpL16-k0 in experiment [1]; 4 % of GpH7-B3/GpL16-k0 in experiment [2]; 2 % of GpH7-B3/GpL16-k0 in experiment [3]; 50 % of GpH7-B3/GpL16-k0 in experiment [4]; 0 % of GpH7-B3/GpL16-k0 in experiment [5].

(Values after US20200199241A1 (Chugai, published 2020).)
